Our source for the OD values is patent US20070082369A1.

For test [1], the target named is Heska native Derf1 (Dermatophagoides farinae) (UniProt P16311). Description: sandwich ELISA, capture MAb 6A8, detection biotinylated MAb 4C1; 25 ng protein per well. Background: ELISA stands for enzyme-linked immunosorbent assay.
Test [2] addresses Pichia-expressed recombinant Der f 1 protein PDerf1303b (Dermatophagoides farinae) (UniProt P16311). The description is as above.
Test [3] has as its target E. coli-expressed recombinant Der f 1 protein PDerf1303c (Dermatophagoides farinae) (UniProt P16311). The test is described as above.
The target of test [4] is Heska native Derf1 (Dermatophagoides farinae) (UniProt P16311). Put plainly: sandwich ELISA, capture MAb 6A8, detection biotinylated MAb 4C1; 3.1 ng protein per well.
The target of test [5] is Pichia-expressed recombinant Der f 1 protein PDerf1303b (Dermatophagoides farinae) (UniProt P16311). Described as above.
Test [6] has as its target E. coli-expressed recombinant Der f 1 protein PDerf1303c (Dermatophagoides farinae) (UniProt P16311). Described as above.
In test [7] the target is Heska native Derf1 (Dermatophagoides farinae) (UniProt P16311). Put plainly: sandwich ELISA, capture MAb 6A8, detection biotinylated MAb 4C1; 6.25 ng protein per well.
The target of test [8] is Pichia-expressed recombinant Der f 1 protein PDerf1303b (Dermatophagoides farinae) (UniProt P16311). The description is as above.
Test [9] concerns the target E. coli-expressed recombinant Der f 1 protein PDerf1303c (Dermatophagoides farinae) (UniProt P16311). Described as above.
The target of test [10] is Heska native Derf1 (Dermatophagoides farinae) (UniProt P16311). Description: sandwich ELISA, capture MAb 6A8, detection biotinylated MAb 4C1; 1.5 ng protein per well.
The target of test [11] is Pichia-expressed recombinant Der f 1 protein PDerf1303b (Dermatophagoides farinae) (UniProt P16311). The description is as above.
Test [12] has as its target E. coli-expressed recombinant Der f 1 protein PDerf1303c (Dermatophagoides farinae) (UniProt P16311). Described as above.
The target in test [13] is Heska native Derf1 (Dermatophagoides farinae) (UniProt P16311). Description: sandwich ELISA, capture MAb 6A8, detection biotinylated MAb 4C1; 0.75 ng protein per well.
In test [14] the target is Pichia-expressed recombinant Der f 1 protein PDerf1303b (Dermatophagoides farinae) (UniProt P16311). The description is as above.
Test [15] deals with E. coli-expressed recombinant Der f 1 protein PDerf1303c (Dermatophagoides farinae) (UniProt P16311). Described as above.
In test [16] the target is Heska native Derf1 (Dermatophagoides farinae) (UniProt P16311). Description: sandwich ELISA, capture MAb 6A8, detection biotinylated MAb 4C1; 2.5 ng protein per well.
Test [17] concerns the target Pichia-expressed recombinant Der f 1 protein PDerf1303b (Dermatophagoides farinae) (UniProt P16311). Described as above.
Test [18] deals with E. coli-expressed recombinant Der f 1 protein PDerf1303c (Dermatophagoides farinae) (UniProt P16311). Described as above.
Test [19] concerns the target Heska native Derf1 (Dermatophagoides farinae) (UniProt P16311). Put plainly: sandwich ELISA, capture MAb 6A8, detection biotinylated MAb 4C1; 50 ng protein per well.
Test [20] deals with Pichia-expressed recombinant Der f 1 protein PDerf1303b (Dermatophagoides farinae) (UniProt P16311). Described as above.
The target in test [21] is E. coli-expressed recombinant Der f 1 protein PDerf1303c (Dermatophagoides farinae) (UniProt P16311). Described as above.

Take “anti-Der f 1 protein monoclonal antibody 6A8”: the OD was 2140 OD x1000 in [1]; 2160 OD x1000 in test [2]; 1770 OD x1000 in test [3]; 2220 OD x1000 in test [4]; 1540 OD x1000 in test [5]; 503 OD x1000 in [6]. The OD turned out to be 2200 OD x1000 in test [7]; 1960 OD x1000 in test [8]; 890 OD x1000 in test [9]; 2040 OD x1000 in test [10]; 916 OD x1000 in test [11]; 268 OD x1000 in test [12]. The OD in test [13] came out at 1740 OD x1000; in test [14] it was 405 OD x1000; in [15], 136 OD x1000; in [16], 2290 OD x1000; in test [17], 2090 OD x1000; in [18] it was 1370 OD x1000. For the same substance, the OD in [19] was found to be 2180 OD x1000; in test [20], 2150 OD x1000; in test [21] it was 1980 OD x1000.
